According to patent publication US20200055920A1 (published 2020):

Tests used:
Experiment in all cases: Biacore SPR; receptor-Fc captured by anti-Fc antibody, ligand injected
Activin A = biological target: T1, Activin A (UniProt P08476 311-426)
T1 construct: also called βAβA
T1 sequence (looked up): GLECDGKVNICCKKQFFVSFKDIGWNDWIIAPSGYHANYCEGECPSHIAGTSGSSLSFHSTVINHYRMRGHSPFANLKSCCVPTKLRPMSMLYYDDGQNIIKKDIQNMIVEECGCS
Protocol: (§1) Ligands were injected and allowed to flow over the captured receptor protein.

Activin B = biological target: T2, Activin B (UniProt P09529 293-407)
T2 construct: also called βBβB
T2 sequence (looked up): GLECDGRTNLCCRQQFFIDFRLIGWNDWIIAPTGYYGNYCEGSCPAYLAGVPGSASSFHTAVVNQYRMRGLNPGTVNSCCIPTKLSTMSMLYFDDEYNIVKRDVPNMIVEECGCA
Protocol: as §1

Activin AB = biological target: T3, Activin AB (UniProt P08476 311-426; P09529 293-407)
T3 construct: also called βAβB
T3 sequence (looked up) 1: T1 sequence (looked up)
T3 sequence (looked up) 2: T2 sequence (looked up)
Protocol: as §1

Activin AC = biological target: T4, Activin AC (UniProt P08476 311-426; P55103 237-352)
T4 sequence (looked up) 1: T1 sequence (looked up)
T4 sequence (looked up) 2: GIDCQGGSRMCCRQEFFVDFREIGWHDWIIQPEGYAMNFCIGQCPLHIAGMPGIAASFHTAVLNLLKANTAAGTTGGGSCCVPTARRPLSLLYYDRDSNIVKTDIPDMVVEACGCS
Protocol: as §1

BMP2 = BMP2 (UniProt P12643 283-396)
Protocol: as §1

BMP4 = biological target: T5, BMP4 (UniProt P12644 293-408)
T5 sequence (looked up): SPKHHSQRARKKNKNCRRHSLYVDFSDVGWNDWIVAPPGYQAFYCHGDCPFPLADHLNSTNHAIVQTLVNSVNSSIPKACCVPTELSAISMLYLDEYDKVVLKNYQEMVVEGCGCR
Protocol: as §1

BMP5 = biological target: T6, BMP5 (UniProt P22003 317-454, limits assumed)
T6 sequence (looked up): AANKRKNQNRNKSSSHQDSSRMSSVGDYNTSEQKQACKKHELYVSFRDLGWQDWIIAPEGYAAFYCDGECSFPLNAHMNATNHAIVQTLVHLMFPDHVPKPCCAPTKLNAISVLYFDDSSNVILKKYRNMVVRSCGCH
Protocol: as §1

BMP6 = biological target: T7, BMP6 (UniProt P22004 382-513, limits assumed)
T7 sequence (looked up): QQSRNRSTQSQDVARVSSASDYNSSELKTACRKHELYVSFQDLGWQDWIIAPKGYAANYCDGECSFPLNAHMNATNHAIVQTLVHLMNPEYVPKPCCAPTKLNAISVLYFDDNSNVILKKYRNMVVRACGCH
Protocol: as §1

BMP7 = biological target: T8, BMP7 (UniProt P18075 293-431)
T8 construct: also called osteogenic protein-1; OP-1
T8 sequence (looked up): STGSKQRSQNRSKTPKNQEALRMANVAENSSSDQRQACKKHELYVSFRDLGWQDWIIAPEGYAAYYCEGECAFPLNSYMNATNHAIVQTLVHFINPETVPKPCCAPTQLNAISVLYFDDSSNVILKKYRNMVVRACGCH
Protocol: as §1

BMP10 = biological target: T9, BMP10 (UniProt O95393 317-424)
T9 sequence (looked up): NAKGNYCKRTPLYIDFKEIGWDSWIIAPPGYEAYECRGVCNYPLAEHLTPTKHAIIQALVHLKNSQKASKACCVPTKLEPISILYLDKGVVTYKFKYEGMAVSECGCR
Protocol: as §1

GDF5 = biological target: T10, GDF5 (UniProt P43026 382-501, limits assumed)
T10 construct: also called BMP14
T10 sequence (looked up): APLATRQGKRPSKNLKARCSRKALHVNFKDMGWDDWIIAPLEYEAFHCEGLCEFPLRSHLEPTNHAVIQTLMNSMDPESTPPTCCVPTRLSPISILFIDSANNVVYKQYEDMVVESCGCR
Protocol: as §1

GDF6 = biological target: T11, GDF6 (UniProt Q6KF10 336-455, limits assumed)
T11 construct: also called BMP13
T11 sequence (looked up): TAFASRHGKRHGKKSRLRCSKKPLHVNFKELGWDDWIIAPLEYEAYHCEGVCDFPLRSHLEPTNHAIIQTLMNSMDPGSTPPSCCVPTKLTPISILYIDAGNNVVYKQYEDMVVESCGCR
Protocol: as §1

GDF7 = biological target: T12, GDF7 (UniProt Q7Z4P5 322-450, limits assumed)
T12 construct: also called BMP12
T12 sequence (looked up): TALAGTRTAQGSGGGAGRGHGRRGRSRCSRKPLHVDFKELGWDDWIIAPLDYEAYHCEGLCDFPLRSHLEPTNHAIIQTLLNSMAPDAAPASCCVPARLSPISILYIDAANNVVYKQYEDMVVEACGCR
Protocol: as §1

GDF8 = biological target: T13, GDF8 (UniProt O14793 267-375)
T13 construct: also called myostatin; growth and differentiation factor-8
T13 sequence (looked up): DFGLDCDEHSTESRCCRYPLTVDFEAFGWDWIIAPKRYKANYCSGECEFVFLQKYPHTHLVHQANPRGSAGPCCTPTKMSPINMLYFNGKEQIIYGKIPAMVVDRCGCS
Protocol: as §1

GDF11 = biological target: T14, GDF11 (UniProt O95390 299-407)
T14 construct: also called BMP11
T14 sequence (looked up): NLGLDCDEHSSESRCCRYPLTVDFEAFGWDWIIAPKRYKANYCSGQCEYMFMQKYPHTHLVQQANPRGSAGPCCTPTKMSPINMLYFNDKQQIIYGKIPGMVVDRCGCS
Protocol: as §1

Sequence of BMP2 (P12643 283-396 limits assumed): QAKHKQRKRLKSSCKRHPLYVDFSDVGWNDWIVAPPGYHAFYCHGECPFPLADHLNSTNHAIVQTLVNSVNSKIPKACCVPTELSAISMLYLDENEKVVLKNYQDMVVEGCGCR

binding result (Activin A): no binding
binding result (Activin B): no binding
binding result (Activin AB): no binding
binding result (Activin AC): no binding
Kd (BMP2): 0.31 nM
koff (BMP2): 0.00025 s⁻¹
kon (BMP2): 790000 M⁻¹ s⁻¹
Kd (BMP4): 0.093 nM
koff (BMP4): 4.6e-05 s⁻¹
kon (BMP4): 490000 M⁻¹ s⁻¹
Kd (BMP5): 45 nM
koff (BMP5): 0.0053 s⁻¹
kon (BMP5): 120000 M⁻¹ s⁻¹
binding result (BMP6): no binding
binding result (BMP7): no binding
binding result (BMP10): no binding
binding result (GDF5): no binding
binding result (GDF6): no binding
Kd (GDF7): 22 nM
koff (GDF7): 0.01 s⁻¹
kon (GDF7): 460000 M⁻¹ s⁻¹
binding result (GDF8): no binding
binding result (GDF11): no binding
B1: single-arm ALK3-Fc heterodimeric complex (Fc fusion)
chain 1: GAQNLDSMLHGTGMKSDSDQKKSENGVTLAPEDTLPFLKCYCSGHCPDDAINNTCITNGHCFAIIEEDDQGETTLASGCMKYEGSDFQCKDSPKAQLRRTIECCRTNLCNQYLQPTLPPVVIGPFFDGSIRTGGGTHTCPPCPAPELLGGPSVFLFPPKPKDTLMISRTPEVTCVVVDVSHEDPEVKFNWYVDGVEVHNAKTKPREEQYNSTYRVVSVLTVLHQDWLNGKEYKCKVSNKALPAPIEKTISKAKGQPREPQVYTLPPSREEMTKNQVSLTCLVKGFYPSDIAVEWESNGQPENNYDTTPPVLDSDGSFFLYSDLTVDKSRWQQGNVFSCSVMHEALHNHYTQKSLSLSPG
chain 2: SNTKVDKRVTGGGTHTCPPCPAPELLGGPSVFLFPPKPKDTLMISRTPEVTCVVVDVSHEDPEVKFNWYVDGVEVHNAKTKPREEQYNSTYRVVSVLTVLHQDWLNGKEYKCKVSNKALPAPIEKTISKAKGQPREPQVYTLPPSRKEMTKNQVSLTCLVKGFYPSDIAVEWESNGQPENNYKTTPPVLKSDGSFFLYSKLTVDKSRWQQGNVFSCSVMHEALHNHYTQKSLSLSPGK
notes: also called ALK3-Fc:Fc heterodimer
